Test results reported in article PMC9095961.
pKd: −log10 of the molar value.

Molecular target: fluorescently labelled recombinant HAUSP (UniProt Q93009)
Assay: other fluorescence titration; BODIPY FL-labelled HAUSP titrated with unlabeled PE_PGRS38; 25°C, 30 mM Tris pH 7.4, 150 mM NaCl, 1 mM dithiothreitol; fitted with Grafit

Sequence of UniProt Q93009 (Q93009 whole entry): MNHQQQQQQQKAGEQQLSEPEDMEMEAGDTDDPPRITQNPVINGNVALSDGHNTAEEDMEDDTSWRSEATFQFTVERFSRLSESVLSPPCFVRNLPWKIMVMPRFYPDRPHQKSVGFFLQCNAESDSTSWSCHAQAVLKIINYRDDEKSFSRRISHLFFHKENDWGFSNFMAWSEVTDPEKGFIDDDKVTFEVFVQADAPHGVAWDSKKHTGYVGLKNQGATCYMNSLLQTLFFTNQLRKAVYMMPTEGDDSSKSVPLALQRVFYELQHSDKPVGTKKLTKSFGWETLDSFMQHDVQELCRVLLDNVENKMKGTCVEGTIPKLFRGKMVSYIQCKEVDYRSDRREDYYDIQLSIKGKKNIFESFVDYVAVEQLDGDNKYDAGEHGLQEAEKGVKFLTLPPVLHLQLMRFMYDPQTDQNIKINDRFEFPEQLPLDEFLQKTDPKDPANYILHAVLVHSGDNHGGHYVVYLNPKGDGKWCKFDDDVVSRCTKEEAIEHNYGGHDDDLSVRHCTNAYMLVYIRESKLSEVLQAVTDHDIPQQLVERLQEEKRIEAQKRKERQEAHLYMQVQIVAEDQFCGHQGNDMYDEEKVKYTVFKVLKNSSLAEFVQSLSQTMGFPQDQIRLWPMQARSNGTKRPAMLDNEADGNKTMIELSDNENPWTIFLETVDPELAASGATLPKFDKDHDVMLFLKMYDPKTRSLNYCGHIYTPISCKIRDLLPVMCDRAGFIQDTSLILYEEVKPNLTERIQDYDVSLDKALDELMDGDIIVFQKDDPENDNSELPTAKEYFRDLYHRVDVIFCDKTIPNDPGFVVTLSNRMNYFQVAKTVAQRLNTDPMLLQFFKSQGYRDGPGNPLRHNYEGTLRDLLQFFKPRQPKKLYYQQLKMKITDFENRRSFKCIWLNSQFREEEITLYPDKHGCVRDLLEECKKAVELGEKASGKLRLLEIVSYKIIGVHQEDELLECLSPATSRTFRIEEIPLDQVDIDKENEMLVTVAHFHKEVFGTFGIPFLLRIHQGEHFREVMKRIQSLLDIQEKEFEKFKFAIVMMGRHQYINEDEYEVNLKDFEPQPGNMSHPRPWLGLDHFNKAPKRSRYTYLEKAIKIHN

recombinant PE_PGRS38 (from UniProt L7N6A1 1-532) (natural protein)
pKd: 6.84
